# According to the supplement of paper PMC10065799, “High-throughput profiling of sequence recognition by tyrosine kinases and SH2 domains using bacterial peptide display” (eLife, 2023):
# Experiments:
# [1] = target: c-Src SH2; experiment: SH2 binding enrichment of the phosphorylated peptide, bacterial display (enrichment ratio); higher = better substrate or ligand; peptides without Tyr show the background
# [2] = target: SHP2-C SH2; experiment: as above
# [3] = target: Grb2 SH2 (UniProt P62993); experiment: as above
# [4] = target: EPHB1 (UniProt P54762); experiment: phosphorylation enrichment, bacterial display (enrichment ratio); higher = better substrate or ligand; peptides without Tyr show the background
# [5] = target: FGFR1 (UniProt P11362); experiment: as above
# [6] = target: FGFR3 (UniProt P22607); experiment: as above
# [7] = tested on: c-Src; experiment: as above
# [8] = tested on: c-Abl (mouse); experiment: as above
# [9] = target: EPHB2 (UniProt P29323); experiment: as above
# [10] = target: Fyn (UniProt P06241); experiment: as above
# [11] = tested on: Fer (mouse); experiment: as above
# [12] = target: Jak2 (UniProt O60674); experiment: as above
# [13] = target: MERTK (UniProt Q12866); experiment: as above
# [14] = tested on: AncSZ; experiment: as above
# [15] = target: Hck (UniProt P08631); experiment: as above
# [16] = target: Fes (UniProt P07332); experiment: as above
# 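Wherever SH2 binding enrichment of the phosphorylated peptide, bacterial display is given: peptide library displayed on the E. coli surface as eCPX fusions, selected cells deep-sequenced, score is each peptide's frequency after selection divided by its frequency in the input.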
# 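Wherever phosphorylation enrichment, bacterial display is given: 11-residue human phosphosite peptides and single-mutation variants displayed on the E. coli surface, counted by deep sequencing, each peptide's frequency after selection divided by its frequency in the unselected input library; frequency after pTyr selection over input frequency; kinase dosed for 20-30% of maximal phosphorylation in three min.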
# Fes, sequence (P07332 whole entry, looked up, the tested form may be a part): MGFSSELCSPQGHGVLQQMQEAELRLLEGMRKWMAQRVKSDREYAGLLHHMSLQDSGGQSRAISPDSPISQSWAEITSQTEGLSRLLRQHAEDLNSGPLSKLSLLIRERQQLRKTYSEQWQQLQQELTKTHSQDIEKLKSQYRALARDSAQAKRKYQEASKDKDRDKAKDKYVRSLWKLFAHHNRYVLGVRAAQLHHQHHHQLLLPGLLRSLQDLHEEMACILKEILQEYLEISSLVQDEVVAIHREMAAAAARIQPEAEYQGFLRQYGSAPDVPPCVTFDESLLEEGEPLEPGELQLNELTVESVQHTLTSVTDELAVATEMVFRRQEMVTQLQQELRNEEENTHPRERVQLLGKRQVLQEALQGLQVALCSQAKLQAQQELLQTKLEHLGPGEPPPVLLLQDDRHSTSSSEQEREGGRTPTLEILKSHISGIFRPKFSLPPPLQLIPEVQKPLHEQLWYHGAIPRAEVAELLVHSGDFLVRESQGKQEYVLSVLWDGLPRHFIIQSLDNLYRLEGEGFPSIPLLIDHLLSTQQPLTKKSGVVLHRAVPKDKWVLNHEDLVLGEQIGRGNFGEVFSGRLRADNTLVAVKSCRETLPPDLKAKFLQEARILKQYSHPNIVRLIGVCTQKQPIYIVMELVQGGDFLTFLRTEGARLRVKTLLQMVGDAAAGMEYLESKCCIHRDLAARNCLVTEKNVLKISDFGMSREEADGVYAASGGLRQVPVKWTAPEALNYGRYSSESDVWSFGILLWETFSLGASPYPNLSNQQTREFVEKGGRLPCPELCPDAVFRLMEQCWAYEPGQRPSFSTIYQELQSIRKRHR
# EPHB1, sequence (P54762 whole entry, looked up): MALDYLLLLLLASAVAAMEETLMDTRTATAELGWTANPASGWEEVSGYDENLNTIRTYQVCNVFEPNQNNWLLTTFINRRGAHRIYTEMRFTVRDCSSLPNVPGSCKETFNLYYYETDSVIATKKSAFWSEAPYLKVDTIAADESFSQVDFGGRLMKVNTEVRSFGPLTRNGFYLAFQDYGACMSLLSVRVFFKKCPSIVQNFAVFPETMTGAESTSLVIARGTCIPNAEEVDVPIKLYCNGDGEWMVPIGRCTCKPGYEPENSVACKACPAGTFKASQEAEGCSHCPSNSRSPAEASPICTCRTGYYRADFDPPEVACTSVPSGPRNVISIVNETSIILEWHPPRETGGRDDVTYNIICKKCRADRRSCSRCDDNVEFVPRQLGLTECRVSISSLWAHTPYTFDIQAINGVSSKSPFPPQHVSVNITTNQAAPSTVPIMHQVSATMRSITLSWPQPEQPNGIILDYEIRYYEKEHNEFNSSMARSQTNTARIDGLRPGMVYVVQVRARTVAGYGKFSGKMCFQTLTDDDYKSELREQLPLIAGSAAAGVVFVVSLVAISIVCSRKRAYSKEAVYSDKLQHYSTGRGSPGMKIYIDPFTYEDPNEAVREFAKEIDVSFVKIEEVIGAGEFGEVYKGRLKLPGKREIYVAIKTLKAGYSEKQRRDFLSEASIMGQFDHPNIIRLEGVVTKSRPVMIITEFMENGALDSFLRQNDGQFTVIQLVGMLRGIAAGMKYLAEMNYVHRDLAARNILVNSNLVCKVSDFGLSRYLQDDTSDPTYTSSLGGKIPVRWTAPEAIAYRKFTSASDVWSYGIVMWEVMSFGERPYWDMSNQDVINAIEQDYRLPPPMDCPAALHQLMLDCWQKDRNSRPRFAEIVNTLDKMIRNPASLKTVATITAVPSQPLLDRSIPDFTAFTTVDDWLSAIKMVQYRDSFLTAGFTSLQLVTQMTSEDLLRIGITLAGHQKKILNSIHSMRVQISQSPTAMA
# MERTK, sequence (Q12866 whole entry, looked up): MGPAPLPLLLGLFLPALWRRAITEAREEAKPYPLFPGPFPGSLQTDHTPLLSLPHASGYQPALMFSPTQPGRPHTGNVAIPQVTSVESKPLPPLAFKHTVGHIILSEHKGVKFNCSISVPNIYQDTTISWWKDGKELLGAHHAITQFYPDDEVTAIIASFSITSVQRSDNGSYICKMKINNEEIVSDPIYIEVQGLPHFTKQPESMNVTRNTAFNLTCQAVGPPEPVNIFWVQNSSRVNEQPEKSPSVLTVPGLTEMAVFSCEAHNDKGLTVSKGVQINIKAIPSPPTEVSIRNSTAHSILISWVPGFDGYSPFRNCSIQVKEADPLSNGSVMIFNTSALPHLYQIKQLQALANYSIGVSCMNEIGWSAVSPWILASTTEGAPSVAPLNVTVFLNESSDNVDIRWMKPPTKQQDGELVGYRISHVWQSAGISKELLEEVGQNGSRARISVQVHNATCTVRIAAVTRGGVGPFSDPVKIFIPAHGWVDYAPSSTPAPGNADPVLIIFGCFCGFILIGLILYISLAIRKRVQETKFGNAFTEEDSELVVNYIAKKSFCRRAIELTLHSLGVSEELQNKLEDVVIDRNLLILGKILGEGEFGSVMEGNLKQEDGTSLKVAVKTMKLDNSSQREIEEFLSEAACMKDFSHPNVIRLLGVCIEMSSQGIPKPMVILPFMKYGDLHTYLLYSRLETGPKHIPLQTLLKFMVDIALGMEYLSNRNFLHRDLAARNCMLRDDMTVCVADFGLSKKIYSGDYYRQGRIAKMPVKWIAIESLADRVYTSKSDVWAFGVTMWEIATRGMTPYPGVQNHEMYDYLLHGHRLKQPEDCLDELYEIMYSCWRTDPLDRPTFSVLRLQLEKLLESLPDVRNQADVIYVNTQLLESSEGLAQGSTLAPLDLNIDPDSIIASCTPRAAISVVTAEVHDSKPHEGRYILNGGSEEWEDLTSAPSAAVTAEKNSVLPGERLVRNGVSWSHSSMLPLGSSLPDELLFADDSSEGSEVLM
# EPHB2, sequence (P29323 whole entry, looked up): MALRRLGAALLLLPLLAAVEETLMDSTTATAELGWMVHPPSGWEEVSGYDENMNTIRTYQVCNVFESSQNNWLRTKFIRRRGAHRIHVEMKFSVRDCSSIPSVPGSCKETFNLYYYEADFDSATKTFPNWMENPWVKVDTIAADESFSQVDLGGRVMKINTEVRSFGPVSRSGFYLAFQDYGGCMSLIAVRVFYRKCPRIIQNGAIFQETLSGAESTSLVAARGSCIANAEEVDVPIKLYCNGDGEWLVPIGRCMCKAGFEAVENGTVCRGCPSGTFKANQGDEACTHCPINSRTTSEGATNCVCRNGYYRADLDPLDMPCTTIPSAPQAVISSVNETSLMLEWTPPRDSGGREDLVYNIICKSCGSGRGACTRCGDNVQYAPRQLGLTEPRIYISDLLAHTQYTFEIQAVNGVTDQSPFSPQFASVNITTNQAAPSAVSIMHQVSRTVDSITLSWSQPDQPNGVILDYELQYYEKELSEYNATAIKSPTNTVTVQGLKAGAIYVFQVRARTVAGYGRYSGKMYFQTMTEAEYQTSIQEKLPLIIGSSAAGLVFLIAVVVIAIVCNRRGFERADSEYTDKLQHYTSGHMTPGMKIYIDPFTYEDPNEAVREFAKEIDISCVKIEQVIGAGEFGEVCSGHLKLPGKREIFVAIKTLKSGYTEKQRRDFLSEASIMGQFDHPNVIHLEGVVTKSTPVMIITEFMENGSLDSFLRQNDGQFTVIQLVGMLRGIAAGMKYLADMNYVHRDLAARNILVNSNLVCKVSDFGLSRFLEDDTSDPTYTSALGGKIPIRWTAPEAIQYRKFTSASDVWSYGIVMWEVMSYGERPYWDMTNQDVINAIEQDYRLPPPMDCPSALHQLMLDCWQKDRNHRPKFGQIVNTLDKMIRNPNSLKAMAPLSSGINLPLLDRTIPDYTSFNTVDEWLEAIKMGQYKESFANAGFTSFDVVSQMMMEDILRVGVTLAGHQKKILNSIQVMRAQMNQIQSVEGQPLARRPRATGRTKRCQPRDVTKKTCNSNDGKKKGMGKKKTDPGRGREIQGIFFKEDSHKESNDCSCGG
# Fyn, sequence (P06241 whole entry, looked up): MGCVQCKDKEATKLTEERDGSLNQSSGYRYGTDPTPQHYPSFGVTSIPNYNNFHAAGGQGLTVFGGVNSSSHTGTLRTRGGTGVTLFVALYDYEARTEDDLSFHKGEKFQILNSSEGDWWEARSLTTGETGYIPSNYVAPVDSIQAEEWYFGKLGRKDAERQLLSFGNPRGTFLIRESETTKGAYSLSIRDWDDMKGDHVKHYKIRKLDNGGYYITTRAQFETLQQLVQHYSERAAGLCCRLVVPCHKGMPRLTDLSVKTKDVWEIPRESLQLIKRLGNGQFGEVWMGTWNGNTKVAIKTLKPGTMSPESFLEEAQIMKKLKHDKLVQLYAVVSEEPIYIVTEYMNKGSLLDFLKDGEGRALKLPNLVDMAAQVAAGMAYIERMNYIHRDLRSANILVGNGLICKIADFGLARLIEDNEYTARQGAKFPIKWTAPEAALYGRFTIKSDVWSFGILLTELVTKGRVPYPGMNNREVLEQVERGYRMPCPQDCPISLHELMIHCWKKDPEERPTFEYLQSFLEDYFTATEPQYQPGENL
# Hck, sequence (P08631 whole entry, looked up): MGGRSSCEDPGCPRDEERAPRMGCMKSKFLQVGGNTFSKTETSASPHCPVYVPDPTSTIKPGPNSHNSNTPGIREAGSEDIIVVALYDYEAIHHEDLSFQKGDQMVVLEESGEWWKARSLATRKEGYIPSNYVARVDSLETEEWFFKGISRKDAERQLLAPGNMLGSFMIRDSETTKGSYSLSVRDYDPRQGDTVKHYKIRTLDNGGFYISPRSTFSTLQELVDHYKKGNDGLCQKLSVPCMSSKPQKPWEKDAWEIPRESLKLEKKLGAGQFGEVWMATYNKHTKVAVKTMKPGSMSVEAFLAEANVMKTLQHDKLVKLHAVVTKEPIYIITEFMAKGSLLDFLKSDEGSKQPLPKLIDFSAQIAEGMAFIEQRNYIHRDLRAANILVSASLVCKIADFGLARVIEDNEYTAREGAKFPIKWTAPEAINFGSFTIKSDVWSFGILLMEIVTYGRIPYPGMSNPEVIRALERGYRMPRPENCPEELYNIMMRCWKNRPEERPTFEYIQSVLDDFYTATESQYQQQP
Sequence,SH2 binding enrichment [1],SH2 binding enrichment [2],SH2 binding enrichment [3],phosphorylation enrichment [4],phosphorylation enrichment [5],phosphorylation enrichment [6],phosphorylation enrichment [7],phosphorylation enrichment [8],phosphorylation enrichment [9],phosphorylation enrichment [10],phosphorylation enrichment [11],phosphorylation enrichment [12],phosphorylation enrichment [13],phosphorylation enrichment [14],phosphorylation enrichment [15],phosphorylation enrichment [16]
RELGEYPLAEY [ALDH1A3_Y492_A493P],2.46,0.291,0.795,0.484,0.688,0.685,0.492,1.17,0.495,0.582,0.593,1.97,0.516,0.982,0.505,1.41
RELSWYRGRRP [HESX1_Y106],0.318,0.422,0.734,0.484,0.53,0.563,0.727,0.787,0.683,0.781,0.693,0.895,0.833,1.02,0.809,0.794
REVPVYTDSEP [FAM120B_Y368],0.911,0.351,0.986,0.965,0.588,1.4,0.872,0.964,0.725,0.753,0.895,1.38,0.478,1.35,0.643,1.35
RFFTTYDTNGR [CLCA1_Y665_YF],0.532,1.67,0.825,0.726,0.674,0.878,1.09,0.858,0.834,0.627,0.688,0.816,0.707,1.08,0.787,0.951
RFLRGYRQFAF [HLA-A_Y137_D140Y_YF],0.412,0.521,0.895,0.67,0.643,0.579,0.76,0.661,0.514,0.583,0.678,0.661,0.587,1.19,0.519,0.908
RFVTRYIFNRE [HLA-DQB1_Y62_YF],0.355,0.721,0.627,0.536,0.923,0.796,0.593,0.528,0.591,0.76,0.615,0.921,0.643,1.2,0.655,1.68
RGESFYQDTMN [RARS_Y338_R341T],0.694,0.807,0.98,2.62,0.695,0.888,0.602,1.03,1.63,0.634,1.79,0.941,1.02,1.02,0.429,0.98
RGKLFYQEVPA [METTL11B_Y76_A72G],1.11,0.804,0.956,1.48,1.37,1.29,0.564,0.503,0.777,0.544,0.719,0.649,3.21,0.844,0.853,1.05
RGVTRYIYNRE [HLA-DQB1_Y62_Y58G],0.527,0.756,0.802,0.912,0.809,0.619,0.953,1,0.547,0.96,0.768,1.25,0.865,1.34,0.97,1.16
RHFTTYDTNGR [CLCA1_Y665_Y661H],0.494,0.642,0.716,0.609,0.808,0.755,0.876,0.618,0.97,1.01,0.594,0.844,0.707,0.93,0.835,0.938
RHLQEYQDLLN [GFAP_Y349],1.13,1.27,1.71,0.513,0.418,0.477,0.399,0.417,0.45,0.616,0.389,0.565,0.392,0.737,0.468,0.807
RHPLDYLRQFP [NARS2_Y138_E137D_YF],0.519,0.746,1.05,0.458,0.429,0.449,0.609,0.753,0.583,0.511,0.349,0.78,0.56,0.719,0.498,0.74
RHTRSYDYTEG [FGF7_Y56_M59T],1.5,0.841,0.864,0.407,0.488,0.546,0.476,0.414,0.369,0.635,0.477,0.587,0.514,0.521,0.602,0.918
RIDPDYVGRVR [IGSF9_Y81],0.583,0.755,0.758,0.534,0.496,0.482,0.563,0.65,0.402,0.481,0.384,0.778,0.405,0.871,0.403,0.702
RILDVYIFLGP [GAA_Y340_G335R],0.534,0.595,0.746,0.842,0.836,0.672,0.393,0.543,0.676,0.46,0.584,0.858,0.492,1,0.547,1.05
RKKEEYKMALF [F8_Y1990_YF],0.846,1.21,1.09,0.734,0.4,0.607,0.555,0.72,0.738,0.31,0.494,0.691,0.391,0.759,0.465,0.708
